From paper PMC11415397, “The Alpha-Synuclein Gene (SNCA) is a Genomic Target of Methyl-CpG Binding Protein 2 (MeCP2)—Implications for Parkinson’s Disease and Rett Syndrome”

B1: SNCA intron 1 CpG2 probe, methylated (dsDNA)
DNA 1: GTGCCCTGGTCTGG
DNA 2: GCTGAGAGATTAGGCTGCTTCTCCGGGATCCGC
DNA 3: GCGGATCCCGGAGAAGCAGCCTAATCTCTCAGCCCAGACCAGGGCAC
modifications: CpG 5mC, in vitro methylated (enzyme for the probe not stated in EMSA section)
B2: SNCA intron 1 CpG1 probe, methylated (dsDNA)
DNA 1: GTGCCCTGGTCTGG
DNA 2: CTGGCTTTCGTCCTGCTTCTGATATTCCCTTCTC
DNA 3: GAGAAGGGAATATCAGAAGCAGGACGAAAGCCAGCCAGACCAGGGCAC
modifications: CpG 5mC, in vitro methylated (enzyme for the probe not stated in EMSA section)

Assays:
MeCP2 R255X [1] = biological target: T1, MeCP2 R255X (UniProt P51608 1-254); experiment: EMSA; strongest shift, already at 30 nM; 10 mM Tris pH 7.5, 1 mM EDTA, 100 mM KCl, 100 uM DTT, 5% glycerol, 10 ug/ml BSA, 30 min room temperature; 50 fmol probe in 5 ul; MeCP2 30-75 (nmol in Methods and legend, nM in Results); conditions: protein: recombinant; tags: His; label: IRDye700 at 5' of LUEGO (S27); three strands: S27 and S25 lie side by side (nick) on S26; blunt
MeCP2 R255X [2] = biological target: T1, MeCP2 R255X; experiment: EMSA; shift from 30 nM; 10 mM Tris pH 7.5, 1 mM EDTA, 100 mM KCl, 100 uM DTT, 5% glycerol, 10 ug/ml BSA, 30 min room temperature; 50 fmol probe in 5 ul; MeCP2 30-75 (nmol in Methods and legend, nM in Results); conditions: protein: recombinant; tags: His; label: IRDye700 at 5' of LUEGO (S27); three strands: S27 and S23 lie side by side (nick) on S24; blunt
MeCP2 wild type = MeCP2 wild type (UniProt P51608 1-486); experiment: as above; conditions: protein: recombinant; tags: His; label: IRDye700 at 5' of LUEGO (S27); three strands: S27 and S23 lie side by side (nick) on S24; blunt

Binder | binding result (MeCP2 R255X [1]) | binding result (MeCP2 R255X [2]) | binding result (MeCP2 wild type)
B1 | binds |  | 
B2 |  | binds | binds
